Results: patent US11352401

Legend:
HLA-A*01 = molecular target: T1, HLA-A*01 (human); assay: UV peptide-exchange ELISA; +++ = yield >50%
T1 construct: MHC monomer made peptide-receptive by UV cleavage of a UV-sensitive ligand; also called peptide-receptive MHC class I monomer
Excerpt: Candidate peptides for T cell based therapies according to the present invention were further tested for their MHC binding capacity (affinity). The individual peptide-MHC complexes were produced by UV-ligand exchange, where a UV-sensitive peptide is cleaved upon UV-irradiation, and exchanged with the peptide of interest as analyzed. Only peptide candidates that can effectively bind and stabilize the peptide-receptive MHC molecules prevent dissociation of the MHC complexes. To determine the yield of the exchange reaction, an ELISA was performed based on the detection of the light chain (β2m) of stabilized MHC complexes. The assay was performed as generally described in Rodenko et al. (Rodenko et al., 2006).
96 well MAXISorp plates (NUNC) were coated over night with 2 ug/ml streptavidin in PBS at room temperature, washed 4× and blocked for 1 h at 37° C. in 2% BSA containing blocking buffer. […] Peptide-MHC monomers of the UV-exchange reaction were diluted 100-fold in blocking buffer. Samples were incubated for 1 h at 37° C., washed four times, incubated with 2 ug/ml HRP conjugated anti-β2m for 1h at 37° C., washed again and detected with TMB solution that is stopped with […]. Absorption was measured at 450 nm.

HLA-B*07 = molecular target: T2, HLA-B*07 (human); assay: UV peptide-exchange ELISA; ++++ = yield >75%
T2 construct: MHC monomer made peptide-receptive by UV cleavage of a UV-sensitive ligand; also called peptide-receptive MHC class I monomer

KTDESLTKY [KTDESLTKY (SEQ ID NO: 414)]
peptide exchange yield (HLA-A*01): 50 to 75%

SPRQPPRLV [SPRQPPRLV (SEQ ID NO: 265)]
peptide exchange yield (HLA-B*07): > 75%

LSDPSGPKSY [LSDPSGPKSY (SEQ ID NO: 418)]
peptide exchange yield (HLA-A*01): 50 to 75%

RPPAAGLRGISL [RPPAAGLRGISL (SEQ ID NO: 259)]
peptide exchange yield (HLA-B*07): > 75%

HPAPYGDLL [HPAPYGDLL (SEQ ID NO: 263)]
peptide exchange yield (HLA-B*07): > 75%

ESDREELNY [ESDREELNY (SEQ ID NO: 140)]
peptide exchange yield (HLA-A*01): 50 to 75%

MPLPWSLALPL [MPLPWSLALPL (SEQ ID NO: 272)]
peptide exchange yield (HLA-B*07): > 75%

EVAEPSVLFDLY [EVAEPSVLFDLY (SEQ ID NO: 142)]
peptide exchange yield (HLA-A*01): 50 to 75%

KPRPDVTNEL [KPRPDVTNEL (SEQ ID NO: 471)]
peptide exchange yield (HLA-B*07): > 75%

LPRLLPAL [LPRLLPAL (SEQ ID NO: 474)]
peptide exchange yield (HLA-B*07): > 75%

LLDPRSYHTY [LLDPRSYHTY (SEQ ID NO: 415)]
peptide exchange yield (HLA-A*01): 50 to 75%

KLDRSVFTAY [KLDRSVFTAY (SEQ ID NO: 153)]
peptide exchange yield (HLA-A*01): 50 to 75%

YPLFRGINL [YPLFRGINL (SEQ ID NO: 268)]
peptide exchange yield (HLA-B*07): > 75%

LPRALLSSL [LPRALLSSL (SEQ ID NO: 473)]
peptide exchange yield (HLA-B*07): > 75%

APYRPPDISL [APYRPPDISL (SEQ ID NO: 290)]
peptide exchange yield (HLA-B*07): > 75%

RPFHTRATV [RPFHTRATV (SEQ ID NO: 462)]
peptide exchange yield (HLA-B*07): > 75%

VLDQGKITEY [VLDQGKITEY (SEQ ID NO: 445)]
peptide exchange yield (HLA-A*01): 50 to 75%

FIDYPKKEDY [FIDYPKKEDY (SEQ ID NO: 143)]
peptide exchange yield (HLA-A*01): 50 to 75%

APYKSVTSL [APYKSVTSL (SEQ ID NO: 466)]
peptide exchange yield (HLA-B*07): > 75%

FPYVRDFVM [FPYVRDFVM (SEQ ID NO: 244)]
peptide exchange yield (HLA-B*07): > 75%

ECDMAFHIY [ECDMAFHIY (SEQ ID NO: 139)]
peptide exchange yield (HLA-A*01): 50 to 75%

TLDENPGVRY [TLDENPGVRY (SEQ ID NO: 440)]
peptide exchange yield (HLA-A*01): 50 to 75%

SPMYGQAGL [SPMYGQAGL (SEQ ID NO: 468)]
peptide exchange yield (HLA-B*07): > 75%

TTDTVIRSY [TTDTVIRSY (SEQ ID NO: 444)]
peptide exchange yield (HLA-A*01): 50 to 75%

APRAPRLML [APRAPRLML (SEQ ID NO: 269)]
peptide exchange yield (HLA-B*07): > 75%

GPTPNTGAAL [GPTPNTGAAL (SEQ ID NO: 294)]
peptide exchange yield (HLA-B*07): > 75%

SPRVPSIEL [SPRVPSIEL (SEQ ID NO: 256)]
peptide exchange yield (HLA-B*07): > 75%

SPNSYFRVL [SPNSYFRVL (SEQ ID NO: 470)]
peptide exchange yield (HLA-B*07): > 75%

KPEGTRIAV [KPEGTRIAV (SEQ ID NO: 295)]
peptide exchange yield (HLA-B*07): > 75%

RPRAPVTPA [RPRAPVTPA (SEQ ID NO: 281)]
peptide exchange yield (HLA-B*07): > 75%

RPHSLSSEL [RPHSLSSEL (SEQ ID NO: 283)]
peptide exchange yield (HLA-B*07): > 75%

HSDLKVGEY [HSDLKVGEY (SEQ ID NO: 151)]
peptide exchange yield (HLA-A*01): 50 to 75%

NPFPHLITL [NPFPHLITL (SEQ ID NO: 254)]
peptide exchange yield (HLA-B*07): > 75%

MPMAGDMNGL [MPMAGDMNGL (SEQ ID NO: 460)]
peptide exchange yield (HLA-B*07): > 75%

RPHKPGLYL [RPHKPGLYL (SEQ ID NO: 475)]
peptide exchange yield (HLA-B*07): > 75%

SPDIRNTTV [SPDIRNTTV (SEQ ID NO: 252)]
peptide exchange yield (HLA-B*07): > 75%

NLDEEKQLLY [NLDEEKQLLY (SEQ ID NO: 424)]
peptide exchange yield (HLA-A*01): 50 to 75%

RPRSALPRLLLP [RPRSALPRLLLP (SEQ ID NO: 293)]
peptide exchange yield (HLA-B*07): > 75%

NPRATDAQL [NPRATDAQL (SEQ ID NO: 472)]
peptide exchange yield (HLA-B*07): > 75%

YLDIPNPRY [YLDIPNPRY (SEQ ID NO: 448)]
peptide exchange yield (HLA-A*01): 50 to 75%

FTEQWTDGY [FTEQWTDGY (SEQ ID NO: 408)]
peptide exchange yield (HLA-A*01): 50 to 75%

VPENHSVAL [VPENHSVAL (SEQ ID NO: 289)]
peptide exchange yield (HLA-B*07): > 75%

IPNWARQDL [IPNWARQDL (SEQ ID NO: 248)]
peptide exchange yield (HLA-B*07): > 75%

VPRPIFSQL [VPRPIFSQL (SEQ ID NO: 465)]
peptide exchange yield (HLA-B*07): > 75%

NVDPVQHTY [NVDPVQHTY (SEQ ID NO: 432)]
peptide exchange yield (HLA-A*01): 50 to 75%

STDNFNCKY [STDNFNCKY (SEQ ID NO: 438)]
peptide exchange yield (HLA-A*01): 50 to 75%

VPTLRSEL [VPTLRSEL (SEQ ID NO: 286)]
peptide exchange yield (HLA-B*07): > 75%

MPLLENLYL [MPLLENLYL (SEQ ID NO: 255)]
peptide exchange yield (HLA-B*07): > 75%

TPLPAVIVL [TPLPAVIVL (SEQ ID NO: 246)]
peptide exchange yield (HLA-B*07): > 75%

VPRSSGQTV [VPRSSGQTV (SEQ ID NO: 251)]
peptide exchange yield (HLA-B*07): > 75%

SPQRLRGLL [SPQRLRGLL (SEQ ID NO: 291)]
peptide exchange yield (HLA-B*07): > 75%

NLDQATRVAY [NLDQATRVAY (SEQ ID NO: 426)]
peptide exchange yield (HLA-A*01): 50 to 75%

HTDSLHLLI [HTDSLHLLI (SEQ ID NO: 152)]
peptide exchange yield (HLA-A*01): 50 to 75%

KPFSSFTSM [KPFSSFTSM (SEQ ID NO: 467)]
peptide exchange yield (HLA-B*07): > 75%

APGPRFLVT [APGPRFLVT (SEQ ID NO: 270)]
peptide exchange yield (HLA-B*07): > 75%

ESDVGVVVY [ESDVGVVVY (SEQ ID NO: 141)]
peptide exchange yield (HLA-A*01): 50 to 75%

LPRIPFADV [LPRIPFADV (SEQ ID NO: 257)]
peptide exchange yield (HLA-B*07): > 75%

FPSFLTNSL [FPSFLTNSL (SEQ ID NO: 285)]
peptide exchange yield (HLA-B*07): > 75%

VPSSRILQL [VPSSRILQL (SEQ ID NO: 249)]
peptide exchange yield (HLA-B*07): > 75%

LPRGPLASL [LPRGPLASL (SEQ ID NO: 258)]
peptide exchange yield (HLA-B*07): > 75%

SPRDFLSGL [SPRDFLSGL (SEQ ID NO: 250)]
peptide exchange yield (HLA-B*07): > 75%

FLDSQNLSAY [FLDSQNLSAY (SEQ ID NO: 144)]
peptide exchange yield (HLA-A*01): 50 to 75%

VVDEDHELIY [VVDEDHELIY (SEQ ID NO: 447)]
peptide exchange yield (HLA-A*01): 50 to 75%

FVDKPVAY [FVDKPVAY (SEQ ID NO: 145)]
peptide exchange yield (HLA-A*01): 50 to 75%

TPKAGPTL [TPKAGPTL (SEQ ID NO: 463)]
peptide exchange yield (HLA-B*07): > 75%

TLDAGKFQIY [TLDAGKFQIY (SEQ ID NO: 439)]
peptide exchange yield (HLA-A*01): 50 to 75%

LLDISQKNLY [LLDISQKNLY (SEQ ID NO: 154)]
peptide exchange yield (HLA-A*01): 50 to 75%

YPRPGTPAA [YPRPGTPAA (SEQ ID NO: 464)]
peptide exchange yield (HLA-B*07): > 75%
